In US20200255529A1 (PIONYR IMMUNOTHERAPEUTICS, published 2020):
Where two headings read alike, the source gives them in different places.

T1: Chimeric cynomolgus TREM1-mIgG Fc (cynomolgus, UniProt A0A2K5VHG8 21-204)
T1 construct: not shown: mouse IgG Fc
T1 sequence: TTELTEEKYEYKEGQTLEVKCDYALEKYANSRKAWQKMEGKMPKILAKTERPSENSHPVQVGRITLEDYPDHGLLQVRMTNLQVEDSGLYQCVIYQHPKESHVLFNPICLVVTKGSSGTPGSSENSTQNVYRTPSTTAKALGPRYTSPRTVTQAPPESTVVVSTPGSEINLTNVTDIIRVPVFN

T2: cynomolgus TREM1 on cells (cynomolgus, UniProt A0A2K5VHG8 21-233)
T2 construct: whole, on cells; Used for HEK293 cells over-expressing cynomolgus TREM1 and for primary cynomolgus monocytes; also called cynoTREM1; Cyno TREM1 cells
T2 sequence: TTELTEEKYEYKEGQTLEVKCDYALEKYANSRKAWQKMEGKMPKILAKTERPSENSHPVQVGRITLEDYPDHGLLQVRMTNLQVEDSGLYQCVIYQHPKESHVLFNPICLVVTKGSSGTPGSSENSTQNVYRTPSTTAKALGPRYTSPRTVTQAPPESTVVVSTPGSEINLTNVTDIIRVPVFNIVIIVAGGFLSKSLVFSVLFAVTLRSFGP

T3: mouse TREM1 on HEK293 cells (mouse, UniProt Q9JKE2 21-230)
T3 construct: also called mTREM1; mouse TREM1 over-expressing cells
T3 sequence: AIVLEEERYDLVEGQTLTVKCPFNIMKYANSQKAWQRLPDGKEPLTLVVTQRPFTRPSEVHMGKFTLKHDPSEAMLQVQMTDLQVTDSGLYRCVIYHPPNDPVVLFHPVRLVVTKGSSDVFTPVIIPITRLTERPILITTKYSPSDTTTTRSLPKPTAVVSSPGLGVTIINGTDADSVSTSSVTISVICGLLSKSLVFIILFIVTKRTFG


Experiments:
[1] = biological target: T1, Chimeric cynomolgus TREM1-mIgG Fc; assay: SPR (Biacore T200), avid format: cynomolgus TREM1-mIgG Fc captured, antibody as analyte
Description: All data were collected at 25° C. 10 mM HEPES pH 7.4, 150 mM NaCl, 3 mM EDTA, 0.05% (v/V) surfactant P20 was used as mobile buffer and for all dilution of mAbs. Anti-mouse Fc was immobilized on a CM4 biosensor chip (GE Healthcare) using amine coupling chemistry. Chimeric cynomolgus TREM1-mIgG Fc was captured on one flow cell and another flow cell (used as reference surface) was left blank. […] After each cycle, the surface was regenerated by injecting a glycine HCl buffer (10 mM, pH 2.0). BIAevaluation software was used to perform the kinetic evaluation. Kinetic evaluation was through generation of sensorgrams which were fitted with a 1:1 Langmuir binding model.

[2] = biological target: T4, hCD16 on NFAT-luciferase reporter Jurkat cells (Promega) (human, UniProt P08637 17-254); assay: cell-based or functional assay
[3] = biological target: T2, cynomolgus TREM1 on cells; assay: flow cytometry on HEK293 cells over-expressing cynomolgus TREM1
[4] = biological target: T2, cynomolgus TREM1 on cells; assay: flow cytometry on cynomolgus peripheral blood monocytes, experiment 1
Description: (§1) Fresh cynomolgus monkey blood (Worldwide Primates Inc) was red cell lysed and washed to enrich PBMC and granulocyte content. Cells were plated and Fc receptors were blocked with a combination of human serum (Jackson Immunoresearch) and a peptide-based FcR block solution (Innovex Biosciences). […] All antibodies used were directly conjugated and data was acquired by flow cytometry (ThermoFisher Attune NxT). EC50 values were calculated in Prism Software (Graphpad).

[5] = biological target: T2, cynomolgus TREM1 on cells; assay: flow cytometry on HEK293 cells over-expressing cynomolgus TREM1, experiment 1
Description: (§2) HEK293 cells over-expressing cynomolgus TREM1 in log phase growth were harvested from culture, washed, and plated in 96 well U bottom plates at 1×10⁵ cells/well. […] An Alexa 647-conjugated anti-human Fcγ secondary antibody (Jackson Immunoresearch) diluted at 1:500 was used to detect bound primary antibody. The secondary antibody was incubated with the cells for 30 mins on ice. […] Fluorescence signal from bound antibody was assessed by flow cytometry (ThermoFisher Attune NxT). EC50 values were calculated in Prism Software (Graphpad).

[6] = biological target: T5, recombinant human His-tagged FcγRI (human, UniProt P12314 16-288); assay: ELISA on plates coated with 1 ug/ml His-tagged human FcγRI (CD64), detection with HRP-conjugated anti-human F(ab')2
T5 construct: also called hFcγRI; not shown: His tag
Description: 1 ug/ml of the indicated recombinant human His-tagged FcγR proteins (Sino Biologicals) were coated on MaxiSorp plates overnight at 4° c. […] Fc-mediated binding of the antibodies to the coated FcγR proteins was detected with a HRP-conjugated Fab′2 fragment against the Fab′2 portion of human IgG (Jackson Immunoresearch). TMB substrate (ThermoFisher) was used to quantitate the amount of HRP-conjugated secondary reagent bound to primary antibodies and H₃PO₄ was used to stop the reaction. Absorbance at 450 nm was measured using the Spectramax plate reader ([…]).

[7] = biological target: T1, Chimeric cynomolgus TREM1-mIgG Fc; assay: SPR (Biacore T200), avid format: cynomolgus TREM1-mIgG Fc captured, antibody as analyte; remark: listed apart in the source
[8] = biological target: T4, hCD16 on NFAT-luciferase reporter …; assay: cell-based or functional assay; remark: listed apart in the source
[9] = biological target: T2, cynomolgus TREM1 on cells; assay: flow cytometry on cynomolgus peripheral blood monocytes, experiment 2
Description: as §1

[10] = biological target: T2, cynomolgus TREM1 on cells; assay: flow cytometry on HEK293 cells over-expressing cynomolgus TREM1, experiment 2
Description: as §2

[11] = biological target: T2, cynomolgus TREM1 on cells; assay: flow cytometry on HEK293 cells over-expressing cynomolgus TREM1, experiment 3
Description: as §2

[12] = biological target: T2, cynomolgus TREM1 on cells; assay: flow cytometry on HEK293 cells over-expressing cynomolgus TREM1; remark: listed apart in the source
[13] = biological target: T4, hCD16 on NFAT-luciferase reporter …; assay: cell-based or functional assay; remark: listed apart in the source
[14] = biological target: T3, mouse TREM1 on HEK293 cells; assay: flow cytometry on HEK293 cells over-expressing mouse TREM1, Alexa 647 anti-human Fcγ secondary antibody
Description: as §2, with “HEK293” for “HEK293 cells”, “cynomolgus or mouse” for “cynomolgus”

T4 sequence (P08637 17-254 F176V): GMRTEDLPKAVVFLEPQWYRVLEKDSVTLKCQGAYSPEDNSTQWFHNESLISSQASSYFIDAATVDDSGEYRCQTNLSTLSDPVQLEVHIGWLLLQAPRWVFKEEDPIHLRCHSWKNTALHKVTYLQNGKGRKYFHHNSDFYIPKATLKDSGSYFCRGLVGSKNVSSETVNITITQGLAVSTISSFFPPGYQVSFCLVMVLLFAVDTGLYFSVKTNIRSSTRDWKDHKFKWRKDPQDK
T5 sequence (P12314 16-288 limits assumed): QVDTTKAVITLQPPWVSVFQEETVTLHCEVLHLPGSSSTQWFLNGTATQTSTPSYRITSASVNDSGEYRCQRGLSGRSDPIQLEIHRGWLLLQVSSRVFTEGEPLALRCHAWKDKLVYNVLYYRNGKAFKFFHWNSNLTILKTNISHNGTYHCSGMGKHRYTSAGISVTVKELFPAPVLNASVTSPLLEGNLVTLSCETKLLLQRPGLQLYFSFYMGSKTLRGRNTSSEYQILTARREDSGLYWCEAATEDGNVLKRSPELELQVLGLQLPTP

Row | Binder | Kd [1] [nM] | hCD16 ADCC assay EC50 [2] [nM] | EC50 [3] [nM] | EC50 [4] [nM] | EC50 [5] [nM] | binding result [6] | Kd [7] [nM] | hCD16 reporter assay EC50 (nM), experiment 1 [8] [nM] | hCD16 reporter assay EC50 (nM), experiment 2 [8] [nM] | hCD16 reporter assay EC50 (nM), experiment 3 [8] [nM] | EC50 [9] [nM] | EC50 [10] [nM] | EC50 [11] [nM] | EC50 [12] [nM] | hCD16 ADCC assay EC50 [13] [nM] | binding result [14]
1 | afucosylated PI-4026-5-M100 (parent) (antibody, human IgG1, kappa, afucosylated Fc glycan (made in FUT8-deficient expi293 cells)) heavy: not shown light: DIQLTQSPSSLSASVGDRVTITCSASSSVSYMHWYQQKPGKAPKLLLYTTSNLASGVPSRFSGSGSGTDYTLTISSLQPEDFATYYCHQWSGYPTFGQGTKLEIKRTVAAPSVFIFPPSDEQLKSGTASVVCLLNNFYPREAKVQWKVDNALQSGNSQESVTEQDSKDSTYSLSSTLTLSKADYEKHKVYACEVTHQGLSSPVTKSFNRGEC | 2.99 | 0.36 | 6.61 |  |  |  |  |  |  |  |  |  |  |  |  | 
2 | PI64052 (afucosylated PI-4026-5-M100L) (antibody, human IgG1, kappa, afucosylated Fc glycan (made in FUT8-deficient expi293 cells)) heavy: not shown light: DIQLTQSPSSLSASVGDRVTITCSASSSVSYMHWYQQKPGKAPKLLLYTTSNLASGVPSRFSGSGSGTDYTLTISSLQPEDFATYYCHQWSGYPTFGQGTKLEIKRTVAAPSVFIFPPSDEQLKSGTASVVCLLNNFYPREAKVQWKVDNALQSGNSQESVTEQDSKDSTYSLSSTLTLSKADYEKHKVYACEVTHQGLSSPVTKSFNRGEC | 1.41 | 0.28 | 3.62 | 7.84 | 3.62 | binds | 1.41 | 0.09 | 0.28 | 0.11 | 7.16 | 4.67 | 42.8 |  |  | 
3 | PI64062 (afucosylated PI-4026-5-M100Q) (antibody, human IgG1, kappa, afucosylated Fc glycan (made in FUT8-deficient expi293 cells)) heavy: not shown light: DIQLTQSPSSLSASVGDRVTITCSASSSVSYMHWYQQKPGKAPKLLLYTTSNLASGVPSRFSGSGSGTDYTLTISSLQPEDFATYYCHQWSGYPTFGQGTKLEIKRTVAAPSVFIFPPSDEQLKSGTASVVCLLNNFYPREAKVQWKVDNALQSGNSQESVTEQDSKDSTYSLSSTLTLSKADYEKHKVYACEVTHQGLSSPVTKSFNRGEC | 0.45 | 0.29 | 2.07 | 7.94 | 2.07 | binds | 0.45 | 0.08 | 0.29 | 0.09 | 7.84 | 3.25 | 7.89 |  |  | 
4 | PI-4026-5-M100L (fucosylated) (antibody, human IgG1, kappa, hIgG1, fucosylated; also called fucosylated parent of PI64052) heavy: not shown light: DIQLTQSPSSLSASVGDRVTITCSASSSVSYMHWYQQKPGKAPKLLLYTTSNLASGVPSRFSGSGSGTDYTLTISSLQPEDFATYYCHQWSGYPTFGQGTKLEIKRTVAAPSVFIFPPSDEQLKSGTASVVCLLNNFYPREAKVQWKVDNALQSGNSQESVTEQDSKDSTYSLSSTLTLSKADYEKHKVYACEVTHQGLSSPVTKSFNRGEC | 1.43 |  |  |  |  | binds |  |  |  |  |  |  |  | 4.85 | 5.86 | 
5 | PI-4026-5-M100Q (fucosylated) (antibody, human IgG1, kappa, hIgG1, fucosylated; also called fucosylated parent of PI64062) heavy: not shown light: DIQLTQSPSSLSASVGDRVTITCSASSSVSYMHWYQQKPGKAPKLLLYTTSNLASGVPSRFSGSGSGTDYTLTISSLQPEDFATYYCHQWSGYPTFGQGTKLEIKRTVAAPSVFIFPPSDEQLKSGTASVVCLLNNFYPREAKVQWKVDNALQSGNSQESVTEQDSKDSTYSLSSTLTLSKADYEKHKVYACEVTHQGLSSPVTKSFNRGEC | 0.66 |  |  |  |  | binds |  |  |  |  |  |  |  | 6.04 | 8.6 | 
6 | afucosylated PI-4026-5-M100E (antibody, human IgG1, kappa, afucosylated Fc glycan (made in FUT8-deficient expi293 cells)) heavy: not shown light: DIQLTQSPSSLSASVGDRVTITCSASSSVSYMHWYQQKPGKAPKLLLYTTSNLASGVPSRFSGSGSGTDYTLTISSLQPEDFATYYCHQWSGYPTFGQGTKLEIKRTVAAPSVFIFPPSDEQLKSGTASVVCLLNNFYPREAKVQWKVDNALQSGNSQESVTEQDSKDSTYSLSSTLTLSKADYEKHKVYACEVTHQGLSSPVTKSFNRGEC | 8.66 | 0.33 | 56 |  |  |  |  |  |  |  |  |  |  |  |  | 
7 | afucosylated PI-4026-5-M100I (antibody, human IgG1, kappa, afucosylated Fc glycan (made in FUT8-deficient expi293 cells)) heavy: not shown light: DIQLTQSPSSLSASVGDRVTITCSASSSVSYMHWYQQKPGKAPKLLLYTTSNLASGVPSRFSGSGSGTDYTLTISSLQPEDFATYYCHQWSGYPTFGQGTKLEIKRTVAAPSVFIFPPSDEQLKSGTASVVCLLNNFYPREAKVQWKVDNALQSGNSQESVTEQDSKDSTYSLSSTLTLSKADYEKHKVYACEVTHQGLSSPVTKSFNRGEC | 13.4 | 0.39 | 22 |  |  |  |  |  |  |  |  |  |  |  |  | 
8 | PI-4026-5 (antibody, human IgG1, kappa, fucosylated form made in expi293 cells) heavy: not shown light: DIQLTQSPSSLSASVGDRVTITCSASSSVSYMHWYQQKPGKAPKLLLYTTSNLASGVPSRFSGSGSGTDYTLTISSLQPEDFATYYCHQWSGYPTFGQGTKLEIKRTVAAPSVFIFPPSDEQLKSGTASVVCLLNNFYPREAKVQWKVDNALQSGNSQESVTEQDSKDSTYSLSSTLTLSKADYEKHKVYACEVTHQGLSSPVTKSFNRGEC | 1.76 |  |  |  |  |  |  |  |  |  |  |  |  | 4.61 | 2.54 | no binding (tested: 6 ug/ml)
